Assay results from the Immune Epitope Database (IEDB).

What was measured:
[1] = target: HLA-C*14:02; assay: IEDB peptide-MHC binding, purified MHC/direct/fluorescence; filed as Kd, often an IC50 or EC50 that approximates it; ≥ and ≤ were set here for values at or beyond the usual limits of such assays; conditions: source organism: Mycobacterium tuberculosis str. Haarlem
[2] = target: HLA-B*15:01; assay: IEDB peptide-MHC binding, purified MHC/competitive/fluorescence; filed as Kd, often an IC50 or EC50 that approximates it; ≥ and ≤ were set here for values at or beyond the usual limits of such assays; conditions: source organism: Bacillus cereus ATCC 4342
[3] = target: HLA-A*02:16; assay: as above
[4] = target: HLA-B*27:03; assay: as above
[5] = target: HLA-B*51:01; assay: as above
[6] = target: HLA-A*02:01; assay: as above
[7] = target: HLA-B*18:01; assay: as above
[8] = target: HLA-A*02:19; assay: as above
[9] = target: HLA-A*02:03; assay: as above
[10] = target: HLA-B*57:01; assay: as above
[11] = target: HLA-A*02:11; assay: as above
[12] = target: HLA-B*46:01; assay: as above; conditions: source organism: Bacillus cereus ATCC 4342
[13] = target: HLA-B*39:01; assay: as above
[14] = target: HLA-B*15:17; assay: as above; conditions: source organism: Bacillus cereus ATCC 4342
[15] = target: HLA-A*24:03; assay: as above
[16] = target: HLA-A*03:01; assay: as above
[17] = target: HLA-A*02:12; assay: as above
[18] = target: HLA-A*26:01; assay: as above
[19] = target: HLA-A*69:01; assay: as above; conditions: source organism: Giardia lamblia ATCC 50803
[20] = target: HLA-A*68:02; assay: as above; conditions: source organism: Giardia lamblia ATCC 50803
[21] = target: HLA-A*01:01; assay: as above
[22] = target: HLA-B*58:01; assay: as above
[23] = target: HLA-B*15:01; assay: IEDB peptide-MHC binding, purified MHC/direct/fluorescence; filed as Kd, often an IC50 or EC50 that approximates it; ≥ and ≤ were set here for values at or beyond the usual limits of such assays; conditions: source organism: Vibrio parahaemolyticus AQ3810
[24] = target: HLA-B*27:03; assay: as above; conditions: source organism: Vibrio parahaemolyticus AQ3810
[25] = target: HLA-B*51:01; assay: as above; conditions: source organism: Vibrio parahaemolyticus AQ3810
[26] = target: HLA-A*26:01; assay: as above; conditions: source organism: Vibrio parahaemolyticus AQ3810
[27] = target: HLA-A*29:02; assay: IEDB peptide-MHC binding, purified MHC/competitive/fluorescence; filed as Kd, often an IC50 or EC50 that approximates it; ≥ and ≤ were set here for values at or beyond the usual limits of such assays; conditions: source organism: Homo sapiens
[28] = target: HLA-C*06:02; assay: IEDB peptide-MHC binding, purified MHC/direct/fluorescence; filed as Kd, often an IC50 or EC50 that approximates it; ≥ and ≤ were set here for values at or beyond the usual limits of such assays; conditions: source organism: Homo sapiens
[29] = target: HLA-B*15:09; assay: as above
[30] = source organism: Bacillus cereus ATCC 4342
[31] = source organism: Giardia lamblia ATCC 50803
[32] = source organism: Escherichia coli O139:H28 str. E24377A
[33] = source organism: Francisella tularensis subsp. tularensis FSC198
[34] = source organism: Yersinia pestis Nepal516

Work on AAIAVGVAL yielded a Kd [1] of no less than 20 µM.
Work on GLFWGGIWY yielded a Kd [2] of no less than 20 µM, a Kd [3, 30] of 5.63 µM and a Kd [4, 30] of no less than 20 µM. For the same sequence, the Kd [5, 30] was no less than 20 µM, the Kd [6, 30] was no less than 20 µM and the Kd [7, 30] was no less than 20 µM. For the same sequence, the Kd [8, 30] was no less than 20 µM, the Kd [9, 30] was no less than 20 µM and the Kd [10, 30] was no less than 20 µM. The Kd [11, 30] was 0.834 µM, the Kd [12] was no less than 20 µM and the Kd [13, 30] was no less than 20 µM. The Kd [14] was no less than 20 µM, the Kd [15, 30] was no less than 20 µM and the Kd [16, 30] was no less than 20 µM. The Kd [17, 30] was no less than 20 µM and the Kd [18, 30] was no less than 20 µM.
IANTTDHFF showed a Kd [19] of no less than 20 µM, a Kd [3, 31] of no less than 20 µM and a Kd [4, 31] of no less than 20 µM. For the same sequence, the Kd [5, 31] was no less than 20 µM, the Kd [6, 31] was no less than 20 µM and the Kd [7, 31] was no less than 20 µM. It also gave a Kd [8, 31] of no less than 20 µM, a Kd [9, 31] of no less than 20 µM and a Kd [10, 31] of 0.159 µM. For the same sequence, the Kd [13, 31] was no less than 20 µM, the Kd [15, 31] was no less than 20 µM and the Kd [16, 31] was no less than 20 µM. For the same sequence, the Kd [17, 31] was no less than 20 µM, the Kd [18, 31] was no less than 20 µM and the Kd [20] was no less than 20 µM.
Sequence ISKANWMTY has a Kd [19] of no less than 20 µM, a Kd [3, 31] of no less than 20 µM and a Kd [4, 31] of no less than 20 µM. It also gave a Kd [5, 31] of no less than 20 µM, a Kd [6, 31] of no less than 20 µM and a Kd [7, 31] of no less than 20 µM. It also gave a Kd [8, 31] of no less than 20 µM, a Kd [9, 31] of no less than 20 µM and a Kd [10, 31] of 0.0837 µM. The Kd [11, 31] was no less than 20 µM, the Kd [13, 31] was no less than 20 µM and the Kd [15, 31] was no less than 20 µM. It also gave a Kd [16, 31] of no less than 20 µM, a Kd [17, 31] of no less than 20 µM and a Kd [18, 31] of no less than 20 µM. It also gave a Kd [20] of no less than 20 µM.
ITAALAWSL gave a Kd [6, 32] of 0.0725 µM, a Kd [21, 32] of no less than 20 µM and a Kd [22, 32] of 0.672 µM.
With MAYGFFNNI the Kd [23] was no less than 20 µM, the Kd [24] was no less than 20 µM and the Kd [25] was 0.03 µM. It also gave a Kd [26] of no less than 20 µM.
For NYIDKVRFL, the Kd [27] was 0.109 µM, the Kd ([21]; source organism: Homo sapiens) was no less than 20 µM and the Kd [28] was 0.004 µM.
In the case of TMDVYVMIL, the Kd ([13]; source organism: Vibrio cholerae MAK 757) is reported as 0.0123 µM and the Kd ([29]; source organism: Vibrio cholerae V52) is reported as 0.384 µM.
Work on TVIEGLDKL yielded a Kd [3, 33] of 0.195 µM and a Kd [6, 33] of 0.0884 µM.
For YDAHHRFIL, the Kd ([29]; source organism: Listeria monocytogenes serotype 4b str. H7858) was no less than 20 µM.
YSSPHLLRY was tested, and the Kd [21, 34] was 0.0103 µM, the Kd [22, 34] was 0.0045 µM and the Kd [16, 34] was 0.258 µM.
